Measured values as given in the DeepSol protein solubility set.

Assay: soluble on expression in E. coli; label from the status in PepcDB or PDB records

Sequence	soluble on expression in E. coli
MGSDKIHHHHHHMQYIHVVNGDVAGNTLRQALAQAARPDPVVVLRDDLAVGPLVDVDSTGSIRSGFWQRVAPHTDIDFAAEMRQALDQLQKLRQSDMEIAIWHGQSAADQLMLRRVVFHLYQAPQRINEVAMDLRELELPPQAGLAAIGMYSPARLARRFSTIAPVSVLRLGRLGYEWQQNVRENADVRLWKGNTLVAAAYHSIDDIIMERAPSEWTPAAEVVGSVMGAIEGLLASDWFVFWRCRELISMGRMVLRGNADSLDTCELRRHVIASAE	not soluble
MGSDKIHHHHHHMRAHCRHSLWRKENMMESKIYPHEVSLETIDSMPDEYRDTLIHQLLANGEGELSAGDTYIDSFYPLAPDADERYICAQFAAEEVDHFRRFSRLLAELEVDTSHMLSQKKAERRYFAAESMTTDFRSWEERAAFSFLCELEGHYQIKEMVSSSYLPLRAEAEAVLKEEARHFSHGALLMRRAAKDGDARARAQDALDRLYPMAMDMFGRSDSHRSDAAVSWGLRQYTNGQLRDRYRDDVRGHIQRLGYEVPDETARRKYF	not soluble
MGSDKIHHHHHHMRDLNRLDDLLQGYEFMKKINDNWEIIENGLNLSDYEIEHLRKRITNLVIASGGNSSNEVVDLRVSKLQNKIFELAKDRLDSDLDSLADSLKNMMTRITSIELTNEQVLYMLNRLYGLDAGSIEVYVDSVSGDDTAGTGEKNKPFKTINKATMNFPRVFNSNTLRLWINPGRYDEDVIIPPLSGVTLYILSSNYETVDPAAGPTTCQIRSISVSDTSGYIYIAGIEQTNTAGTTKNYFIKAIRCGFVRITKCRMAFNTKAIDPFTAVFIDACSADVNGCYFASQNVDVRGYNTARVEVQNTTHGAKSAIGLYPQSADIFNLNSGTWEADTPTKLSGGGVVRT	not soluble
MGSDKIHHHHHHMRDMCSISGIIVKDNQISAKYSIDMMKILKHRGRDNSGLLLDDEVIYFNDFEDVEDLEEEMIGNLSLAHNRLAIVGRYGVQPIPNEDETIWLVCNGEIYNYIELREYLKQNHEFRTDSDNEVIIHLYEEEKLEELDGDYAFAIYDKSKNVVRLARDMFGVKPLFYVDRDKYFAFASERKALWHLLINIDGCERDLDELNSKIKTLKPNSQLIYYLDDNRFEIIEGFKKLELNYMKERSYEEAKEYLDRALKNSVLKRVRGLDKVGIICSGGVDSSLIAKLASLYCEVILYAVGTENSEDLIYAERLAKDLNLKLRKKIISEEEYEEYVFKVAKAIDEVDLMKIGVGIPIYVASEMANEDGLKVVLSGQGADELFGGYARHERIYRERGEEELKKELLKDVYNLYKVNLERDDHCTMANGVELRVPFLDEEVVEIALSIPIEYKMSELSNRPYAESNISLKSEPINGLKNTNLNIKCVRSVRKKILRDVASQYLPDYIAYRPKKAAQYGSGGEKMIYKVAKKYGFSKKRINEFLDMLKRKIVSEF	not soluble
MGSDKIHHHHHHMREIDVHPAFTDLNGSGPDPDLSPLPVVARVGSYSMGWRVEAHAHQRGQLMFVTNGSMRVETRDGSWITPPGRACWIPSAAVHSAIYTQASKMQTVLIAPELLETLPKRCCVIKLTPLLRELVSQAVAINNQYTLHSREHRLMQVLVDQISTAQQAPLFLPEGRDPRLRRVTESLHQNPGDDRSIEAWAQIAGASARTLARLFQKETGMTYSSWRQQLCLIRAVEMLTEGASVTNIALALGYESTAGFTSMFTRSMGESPSNYLTRWSQETTASE	not soluble
MGSDKIHHHHHHMRESPLILPFDPAGIALDRSRGLSQQLYQALRARVLDGRLSSGTRLPATRDLAAMLALSRNSVVRAYDQLYAEGFIESRVGDGTYVSRLPKLSTQVSTGLSLGLSTGLSTFRQENTEDLSSGRHISAPLQRLKNNHLPPPRSGLPRAFRVGIPAFDLFPFDVWAKLQAGFWRNPSPAQLGYGDPAGEPALRDLIAAYLRRSRGLSCTAEQIVITSGAQQAISLCAQLLLQPGDGVAVENPGYRAAAHAFTLAGGRVCGVPVDEDGLDCGRLEQLTDCRLTYVTPAHQYPTGVTMSLARRLALLAWAERSDGWIIEDDYDGEYRYSGAPLAPLAALDRHGRVLYVGTFGKIAFPALRLGYLVLPSKLVQAFSQGRAIAVRHSEVSSQCVMAEFMARGHFQRHIRRMRKAALKRRDVLKAGWPVDIPGLGAMPEVAAGLHVKVNVDNFAREQELVAKAEAVEVEVTPLSNFWLADCEVPVDKRAGLVLGFAAVPEGEIAEALMKLRKVWRK	not soluble
MGSDKIHHHHHHMRETPFRLLLDARACRKKGSAAILQRQRERLVEMVTYARTCSPYYRQLYQGLPARITDPRLLPVTTKAALMAHFDDWVTDPAVTLEGTQSFVADPSLLGEKFLNRYTAATTSGTTGTRGLFLLDTRTLAVSKALTFRMLSSWLTPADLMGIIRGRGRIAMVVATGGHFASAAAAAALRKGPARHSVRVFPVQTPIPDLVAQLNSFRPALLAPYASTGRLLASEQEAGRLTIQPVAVILSAEGLPAGEYARISGAFGAKVRQGYAATECPFLSYSCQEGWLHVNSDWAILEPVDANHEPVPPGQPSHTVLLSNLANRIQPILRYDLGDSVTARTDPCRCGDPTPAIHVQGRNAELLTLQGNRLAVAVTPLTLSTALDRVQGLSKGQIIQTGPQSLSLRLQPAAGADPENVWESARSEITRALTSHGLGNVTITRDAGPPLLTPGGKHRTVVPLPP	not soluble
MGSDKIHHHHHHMRFRERRFYMFYGKLQGENGDRFRAALQTMQELFGSVYASDNLIGLQRAGGFREDKKFVETLRRNAQTQQELSIAWRLHTLLWAAQNVMHLPGDFVECGVWKGFCFAFLTDYLDFAKSDKTLYLYDTYQGIPEAMNSEKRSNQVYEKDIAQDPNAILKVVQQRFANVPNARIVQGMVPDSFAEACPERIALLHIDMNSAASEIAALEALFDKVVPGGMIVFDDYGWTGYAAQRHAENAFMAARGHTVLEIPTGQGLVIKH	not soluble
MGSDKIHHHHHHMRFWDIRRVENVSLNLQLENGKLEKPRYNKSTSKGFRVLKNGFWGIFEGNVADDEGLRQAEKNAFTQGDGDIEEIATKGRYRMRVKRDPQDMSIEEKVELLKDLEKIIRDVCVSTKLVYFENRRVLQYRDSCGSEVEYEVLRTGVSIMGVGKGRSLQFLSKRQMRVGGYEVLDGVDEKAYEIVEVLPKLVNALAPPSGEMSVVMDSSLAGVFVHEAFGHAVEADHVLQGATVLKGRLNEKVADESVTIIDDPTLPEFGFFPFDDEGVRAEKKVIVEDGVLKSFLHSRETAKKLGGVAGNARSQGVDVPIVRMSNTYIDTHHYSFDELLEECRDGVYLVGSRGGETNPATGYFHFNAQYGYLIKNGELAEMVRDVSLSGNTLEILRNVKIGREIEFDPGFCGKAGQLVPVSDGSPPVLCRATVGGA	not soluble
MGSDKIHHHHHHMRFYPWLQWLKRKTAGAGCVHQFIQTQCPAPAESGTQEPPPAEQDTQTESNAMPSLALRIGDKNFRATLYDNDSTRSLLKKLPLTLTMDELNGNEKFYFFSEKLPSASERVGSIKTGDLMLYGSDCLVLFYESFPTSYSYTRLGTVDDVTGLANALGSGSVEVTFSIN	not soluble
MGSDKIHHHHHHMRGWILYKETATQLKPEWYEIERLLAAAKADNIELEVYAPDEFDLTVTREDNKSILLNGQPVELPDFIIPRMGSGTTYFALAIIRHLERLGVYCLNPSKAIEIVKDKLFSQQLLAEKNLPTPKTMLVKFPVDIDLVERHLGFPVVIKTLSGSQGSGVFLSHKAREFDDLMQLIEATNKNANIILQEFIANSHGRDLRVFTIGGRVAGCYERRGQEDSFKANVSAGGSARPFDITPEIEWLATQTANILDLDVAGIDLLFDNGHYKICEANSSPGFEGLESCLNVDIAAQILHFIRIRLGMFNKDEKNSDPQLTHAGPALANNVTSSKAAE	not soluble
MGSDKIHHHHHHMRHDKFAGPAYTIQIVSNALDMLELLAMRPANPSLGRLAGSLNLTRNKAYRLLSTLCERGLVEQDPETGTYAIGVAALELAQRLIRQAPVVNHAHPIMEELARKHDEAVYMTVLRGDDVVFLDMVDCERQVKATPLIGRRFPYFTNAAGKAIKALEGADPLNLLKKRGRKNNSLDVGSLLSELHEIRHKGVAVDCGGLGDGIVSVAVAVRDYAGKVVGAITMLVPSFRAVADRLESEIIPSLQEGADLLSMKLGHGPC	not soluble
MGSDKIHHHHHHMRIAIIEDEPLAAEKLAGYIQRQWPEAKIIATLSSVDAVIEFFNQPQNLDLLFSDIELSDGQVFSALEQIDVPCPVIFTTSYNDYWMNAFQNQGIEYLLKPFSFKRFSQAVANYQALFEQRSKIETTSFKQRFIIKQQGASEMLNVAEIHCFRAANGTILAGDKQGQYHILSDNNLSQLEAQLDPKVFFRINRADIININSLIKFETYTKETLALYIKGYSEALVTSKTRTANFRKWLEA	not soluble
MGSDKIHHHHHHMRIAIVTHVVRHNDGQGRVNYEIARAALAENYEVTLVASHVAPELLADPRVRWVPVKVGRFWPSNLVKQQVFALKSAWWLRAHRGEYDVLHVNGFISWISADVNTAHFVHGGWFKSPYYPFGLTKGMWSAYQYVYTRVNTALERWAYRRSRAITAVSQKVADEIAGLGIDSRKISVIYNGVDGSAFAGAQPDRAAFKLPDDAFLLLFVGDLRTPRKNLGTVLKALTKLPANVHLAVAGYLPGSPYPDEARALGIDSRVHFLGLVKNMPTLMSSVDAYVFPSRYEAMSLSLLEAMAAGLPVVTARTAGGAEIITRECGIVLEDPDDPAALAQAIGSLAASRDTCRAMGDAARELMTRFGWAHMGAQYVALYRRIGQPTQPSAFERVEHAVTQEQS	not soluble
MGSDKIHHHHHHMRIDVDAFKVLEVLVEEGSFAKAAERLHKAQSAVSYQIKKLEQHLGVSLLSREQYRAELTAEGRVILAEGQRLLSHLANIEHLASRFSEGWEPKLELVIDGALPMEPIMTALKRMAEHQIPTKIQLNMEFLGGVQHRFERDNADLMLVKDYRTGPYYYAKPLPAITSVLLAAPHHPLAGRKALTLTELQQHVELTIEDSSPVKTYRDELQFGGDKVFYLSGFIMKKNALLKGLGFGWMPDFLVRDELKAGLLTEIDFVGGSRYTFVPQLVSTLERPLGRAGRLFTELILEEFAKEPMGIPEGLG	not soluble
MGSDKIHHHHHHMRILLTGIPSYLQRTVSGVSGAEVRHRPYFDEVRTKKELIEQVKKIANTGNYLIGEGAAHALRGHDVTYLPFWHLVNSRNSDEAYESLNEEFDICVFASANLLRPGYSADLEAEVFEKLKMPVVIMGIGIQRREGLKENLPAGTLKFLEVLRNKESFFLTRGYFTAEFLREQGMKFVKPTGCPSLFFAPAEMKRSLAALANPELASSQKIAFGGYLGSVADTIVDAHALLKPDSVASYVIQDEVVAYNLSLPVDDDLPVYDRASGRITGQTAYKHSEKWQRKHELLVFFDTNQWRSWVSARDLCFGRRFHGCIIGMQAGVPSLMIAVDDRMREMLEFIGFPYMEAAVWNREQDRKAYLASFLSKIDSQAVIDRYSACETNFRNALAHVGL	not soluble
MGSDKIHHHHHHMRILVTNDDGIQSKGIIVLAELLSEEHEVFVVAPDKERSATGHSITIHVPLWMKKVFISERVVAYSTTGTPADCVKLAYNVVMDKRVDLIVSGVNRGPNMGMDILHSGTVSGAMEGAMMNIPSIAISSANYESPDFEGAARFLIDFLKEFDFSLLDPFTMLNINVPAGEIKGWRFTRQSRRRWNDYFEERVSPFGEKYYWMMGEVIEDDDRDDVDYKAVREGYVSITPIHPFLTNEQCLKKLREVYD	not soluble
